Results: patent EP4339209A1 (MediMabbio Inc., dated 2024)

What was measured:
[1] = target: recombinant human GITR (Cat No. 13643-H08H, Lot No. LC12JA2509, Sino Biological) (human) (UniProt Q9Y5U5); assay: SPR Biacore 8K, single-cycle kinetics, IgG in supernatant captured on Protein A, GITR as analyte
[2] = target: recombinant human GITR (Cat No. 13643-H08H, Lot No. LC12JA2509, Sino Biological) (human) (UniProt Q9Y5U5); assay: SPR Biacore 8K, multi-cycle kinetics, purified IgG captured on Protein A, GITR as analyte

Kd [1] | Relative KD (fold vs VH0/VL0) [1] | koff [1] | kon [1] | Kd [2] | Relative KD (fold vs VH0/VL0) [2] | koff [2] | kon [2] | Binder
0.987 nM | 1.7 | 0.00053 s⁻¹ | 537000 M⁻¹ s⁻¹ | 0.829 nM | 1.45 | 0.000488 s⁻¹ | 590000 M⁻¹ s⁻¹ | anti-GITR 51B VH4/VL4 humanized antibody (human IgG1, kappa) (antibody, V domains shown) VH: QVQLVQSGAEVKKPGASVKVSCKTTGYRFTGYWINWVRQPPGKGLEWIGEILPGSGATYYSENFKGKVTITADTSTDTAYMELSSLRSEDTAIYYCARKGGYYAMDYWGQGTLVTVSS VL: EIVLTQSPATLSLSPGERATLSCTASSSVSSSYFHWYQQKPGKAPKLWIYSTSNLQSGVPDRFSGSGSGTDYTLTISSLQAEDVATYYCHLYHRSPRTFGGGTKVEIKR
1.41 nM | 2.5 | 0.000628 s⁻¹ | 445000 M⁻¹ s⁻¹ |  |  |  |  | anti-GITR 51B VH1/VL5 humanized antibody (human IgG1, kappa) (antibody, V domains shown) VH: QVQLVQSGAELKKPGASVKLSCKTTGYRFTGYWIEWVRQPPGKGLEWIGEILPGSGATYYSENFKGKATITADTSTNTAYMEVSSLRSGDSAIYYCARKGGYYAMDYWGQGTSVTVSS VL: EIVLTQSPATLSLSPGERATLSCTASSSVSSSYFHWYQQKPGKAPKLWIYSTSNLESGVPDRFSGSGSGTDYTLTISSLQAEDVATYYCHLYHRSPRTFGGGTKVEIKR
0.693 nM | 1.2 | 0.000543 s⁻¹ | 784000 M⁻¹ s⁻¹ | 0.606 nM | 1.06 | 0.000482 s⁻¹ | 796000 M⁻¹ s⁻¹ | anti-GITR 51B VH3/VL1 humanized antibody (human IgG1, kappa) (antibody, V domains shown) VH: QVQLVQSGAEVKKPGASVKVSCKTTGYRFTGYWIEWVRQPPGKGLEWIGEILPGSGATYYSENFKGKVTITADTSTDTAYMELSSLRSEDTAIYYCARKGGYYAMDYWGQGTLVTVSS VL: QIVLTQSPAIMSASLGERVTMSCTASSSVSSSYFHWYQQKPGSAPKLWIYSTSNLASGVPDRFSGSGSGTDYTLTVSSLQAEDVATYYCHLYHRSPRTFGGGTTVDIKR
1.32 nM | 2.3 | 0.000949 s⁻¹ | 721000 M⁻¹ s⁻¹ |  |  |  |  | anti-GITR 51B VH1/VL1 humanized antibody (human IgG1, kappa) (antibody, V domains shown) VH: QVQLVQSGAELKKPGASVKLSCKTTGYRFTGYWIEWVRQPPGKGLEWIGEILPGSGATYYSENFKGKATITADTSTNTAYMEVSSLRSGDSAIYYCARKGGYYAMDYWGQGTSVTVSS VL: QIVLTQSPAIMSASLGERVTMSCTASSSVSSSYFHWYQQKPGSAPKLWIYSTSNLASGVPDRFSGSGSGTDYTLTVSSLQAEDVATYYCHLYHRSPRTFGGGTTVDIKR
1.26 nM | 2.2 | 0.000599 s⁻¹ | 474000 M⁻¹ s⁻¹ |  |  |  |  | anti-GITR 51B VH4/VL5 humanized antibody (human IgG1, kappa) (antibody, V domains shown) VH: QVQLVQSGAEVKKPGASVKVSCKTTGYRFTGYWINWVRQPPGKGLEWIGEILPGSGATYYSENFKGKVTITADTSTDTAYMELSSLRSEDTAIYYCARKGGYYAMDYWGQGTLVTVSS VL: EIVLTQSPATLSLSPGERATLSCTASSSVSSSYFHWYQQKPGKAPKLWIYSTSNLESGVPDRFSGSGSGTDYTLTISSLQAEDVATYYCHLYHRSPRTFGGGTKVEIKR
1.15 nM | 2 | 0.000577 s⁻¹ | 502000 M⁻¹ s⁻¹ |  |  |  |  | anti-GITR 51B VH2/VL4 humanized antibody (human IgG1, kappa) (antibody, V domains shown) VH: QVQLVQSGAEVKKPGASVKLSCKTTGYRFTGYWIEWVRQPPGKGLEWIGEILPGSGATYYSENFKGKATITADTSTNTAYMEVSSLRSEDTAIYYCARKGGYYAMDYWGQGTLVTVSS VL: EIVLTQSPATLSLSPGERATLSCTASSSVSSSYFHWYQQKPGKAPKLWIYSTSNLQSGVPDRFSGSGSGTDYTLTISSLQAEDVATYYCHLYHRSPRTFGGGTKVEIKR
0.916 nM | 1.6 | 0.000507 s⁻¹ | 554000 M⁻¹ s⁻¹ | 0.778 nM | 1.37 | 0.000456 s⁻¹ | 586000 M⁻¹ s⁻¹ | anti-GITR 51B VH3/VL5 humanized antibody (human IgG1, kappa) (antibody, V domains shown) VH: QVQLVQSGAEVKKPGASVKVSCKTTGYRFTGYWIEWVRQPPGKGLEWIGEILPGSGATYYSENFKGKVTITADTSTDTAYMELSSLRSEDTAIYYCARKGGYYAMDYWGQGTLVTVSS VL: EIVLTQSPATLSLSPGERATLSCTASSSVSSSYFHWYQQKPGKAPKLWIYSTSNLESGVPDRFSGSGSGTDYTLTISSLQAEDVATYYCHLYHRSPRTFGGGTKVEIKR
1.05 nM | 1.9 | 0.00066 s⁻¹ | 627000 M⁻¹ s⁻¹ |  |  |  |  | anti-GITR 51B VH4/VL1 humanized antibody (human IgG1, kappa) (antibody, V domains shown) VH: QVQLVQSGAEVKKPGASVKVSCKTTGYRFTGYWINWVRQPPGKGLEWIGEILPGSGATYYSENFKGKVTITADTSTDTAYMELSSLRSEDTAIYYCARKGGYYAMDYWGQGTLVTVSS VL: QIVLTQSPAIMSASLGERVTMSCTASSSVSSSYFHWYQQKPGSAPKLWIYSTSNLASGVPDRFSGSGSGTDYTLTVSSLQAEDVATYYCHLYHRSPRTFGGGTTVDIKR
1.33 nM | 2.3 | 0.000635 s⁻¹ | 477000 M⁻¹ s⁻¹ |  |  |  |  | anti-GITR 51B VH2/VL5 humanized antibody (human IgG1, kappa) (antibody, V domains shown) VH: QVQLVQSGAEVKKPGASVKLSCKTTGYRFTGYWIEWVRQPPGKGLEWIGEILPGSGATYYSENFKGKATITADTSTNTAYMEVSSLRSEDTAIYYCARKGGYYAMDYWGQGTLVTVSS VL: EIVLTQSPATLSLSPGERATLSCTASSSVSSSYFHWYQQKPGKAPKLWIYSTSNLESGVPDRFSGSGSGTDYTLTISSLQAEDVATYYCHLYHRSPRTFGGGTKVEIKR
1.08 nM | 1.9 | 0.000654 s⁻¹ | 603000 M⁻¹ s⁻¹ |  |  |  |  | anti-GITR 51B VH1/VL0 antibody (human IgG1, kappa) (antibody, V domains shown) VH: QVQLVQSGAELKKPGASVKLSCKTTGYRFTGYWIEWVRQPPGKGLEWIGEILPGSGATYYSENFKGKATITADTSTNTAYMEVSSLRSGDSAIYYCARKGGYYAMDYWGQGTSVTVSS VL: QIVLTQSPAIMSASLGERVTMTCTASSSVSSSYFHWYQQKPGSSPKLWIYSTSNLASGVPARFSGSGSGTSYSLTVSSLEAEDAATYYCHLYHRSPRTFGGGTTLDIKR
1.1 nM | 1.9 | 0.000734 s⁻¹ | 665000 M⁻¹ s⁻¹ |  |  |  |  | anti-GITR 51B VH2/VL1 humanized antibody (human IgG1, kappa) (antibody, V domains shown) VH: QVQLVQSGAEVKKPGASVKLSCKTTGYRFTGYWIEWVRQPPGKGLEWIGEILPGSGATYYSENFKGKATITADTSTNTAYMEVSSLRSEDTAIYYCARKGGYYAMDYWGQGTLVTVSS VL: QIVLTQSPAIMSASLGERVTMSCTASSSVSSSYFHWYQQKPGSAPKLWIYSTSNLASGVPDRFSGSGSGTDYTLTVSSLQAEDVATYYCHLYHRSPRTFGGGTTVDIKR
1.37 nM | 2.4 | 0.00149 s⁻¹ | 1.08e+06 M⁻¹ s⁻¹ |  |  |  |  | anti-GITR 51B VH5/VL4 humanized antibody (human IgG1, kappa) (antibody, V domains shown) VH: QVQLVQSGAEVKKPGASVKVSCKTTGYRFTGYWIDWVRQPPGKGLEWIGEILPGSGATYYSENFKGKVTITADTSTDTAYMELSSLRSEDTAIYYCARKGGYYAMDYWGQGTLVTVSS VL: EIVLTQSPATLSLSPGERATLSCTASSSVSSSYFHWYQQKPGKAPKLWIYSTSNLQSGVPDRFSGSGSGTDYTLTISSLQAEDVATYYCHLYHRSPRTFGGGTKVEIKR
1.31 nM | 2.3 | 0.000616 s⁻¹ | 469000 M⁻¹ s⁻¹ |  |  |  |  | anti-GITR 51B VH1/VL4 humanized antibody (human IgG1, kappa) (antibody, V domains shown) VH: QVQLVQSGAELKKPGASVKLSCKTTGYRFTGYWIEWVRQPPGKGLEWIGEILPGSGATYYSENFKGKATITADTSTNTAYMEVSSLRSGDSAIYYCARKGGYYAMDYWGQGTSVTVSS VL: EIVLTQSPATLSLSPGERATLSCTASSSVSSSYFHWYQQKPGKAPKLWIYSTSNLQSGVPDRFSGSGSGTDYTLTISSLQAEDVATYYCHLYHRSPRTFGGGTKVEIKR
1.94 nM | 3.4 | 0.000742 s⁻¹ | 382000 M⁻¹ s⁻¹ |  |  |  |  | anti-GITR 51B VH5/VL1 humanized antibody (human IgG1, kappa) (antibody, V domains shown) VH: QVQLVQSGAEVKKPGASVKVSCKTTGYRFTGYWIDWVRQPPGKGLEWIGEILPGSGATYYSENFKGKVTITADTSTDTAYMELSSLRSEDTAIYYCARKGGYYAMDYWGQGTLVTVSS VL: QIVLTQSPAIMSASLGERVTMSCTASSSVSSSYFHWYQQKPGSAPKLWIYSTSNLASGVPDRFSGSGSGTDYTLTVSSLQAEDVATYYCHLYHRSPRTFGGGTTVDIKR
3.32 nM | 5.9 | 0.000975 s⁻¹ | 294000 M⁻¹ s⁻¹ |  |  |  |  | anti-GITR 51B VH5/VL5 humanized antibody (human IgG1, kappa) (antibody, V domains shown) VH: QVQLVQSGAEVKKPGASVKVSCKTTGYRFTGYWIDWVRQPPGKGLEWIGEILPGSGATYYSENFKGKVTITADTSTDTAYMELSSLRSEDTAIYYCARKGGYYAMDYWGQGTLVTVSS VL: EIVLTQSPATLSLSPGERATLSCTASSSVSSSYFHWYQQKPGKAPKLWIYSTSNLESGVPDRFSGSGSGTDYTLTISSLQAEDVATYYCHLYHRSPRTFGGGTKVEIKR
0.527 nM | 0.9 | 0.000338 s⁻¹ | 642000 M⁻¹ s⁻¹ |  |  |  |  | anti-GITR 51B VH0/VL1 antibody (human IgG1, kappa) (antibody, V domains shown) VH: QVQLQQSGAELMKPGASVKLSCKTTGYRFTGYWIEWVKQRPGHGLEWIGEILPGSGATYYSENFKGKATFTADTSSNTAYMQVSSLTTGDSAIYYCARKGGYYAMDYWGQGTSVTVSS VL: QIVLTQSPAIMSASLGERVTMSCTASSSVSSSYFHWYQQKPGSAPKLWIYSTSNLASGVPDRFSGSGSGTDYTLTVSSLQAEDVATYYCHLYHRSPRTFGGGTTVDIKR
